IntAct's records for PubMed 19632184

Biological target: mare1_human MAPRE1 (UniProt Q15691)
Sequence (Q15691 whole entry): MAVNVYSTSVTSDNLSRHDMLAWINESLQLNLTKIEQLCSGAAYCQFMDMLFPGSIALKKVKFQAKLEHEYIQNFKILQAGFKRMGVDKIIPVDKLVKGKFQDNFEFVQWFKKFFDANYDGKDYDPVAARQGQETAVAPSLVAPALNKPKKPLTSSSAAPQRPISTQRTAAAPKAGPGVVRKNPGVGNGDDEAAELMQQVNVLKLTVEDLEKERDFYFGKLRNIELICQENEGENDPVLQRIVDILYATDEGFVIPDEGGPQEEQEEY

effect of a mutation on the interaction: decreasing interaction
Substance: Dystonin (Homo sapiens), Q03001 I7552N;P7553N
